B1: KtrB (wild type), membrane protein of the KtrAB K+ transporter from Bacillus subtilis (natural protein)
chain: MTLQKDKVIKWVRFTPPQVLAIGFFLTIIIGAVLLMLPISTTKPLSWIDALFTAASATTVTGLAVVDTGTQFTVFGQTVIMGLIQIGGLGFMTFAVLIVMILGKKIGLKERMLVQEALNQPTIGGVIGLVKVLFLFSISIELIAALILSIRLVPQYGWSSGLFASLFHAISAFNNAGFSLWPDNLMSYVGDPTVNLVITFLFITGGIGFTVLFDVMKNRRFKTFSLHTKLMLTGTLMLNAIAMLTVFILEYSNPGTLGHLHIVDKLWASYFQAVTPRTAGFNSLDFGSMREGTIVFTLLLMFIGAGSASTASGIKLTTFIVILTSVIAYLRGKKETVIFRRSIKYPIIIKALAVSVTSLFIVFLGIFALTITEQAPFLQIVFETFSAFGTVGLTMGLTPELTTAGKCIIIVIMFIGRIGPLTFVFSFAKTEQSNIRYPDGEVFTG
notes: KtrB, membrane protein of the KtrAB K+ transporter, Bacillus subtilis, GenBank KIX81591.1; In detergent (DDM or cymal-6), or reconstituted in E. coli polar lipid liposomes for the float-up; also called KtrB wt; wild-type KtrB; source: E. coli BL21(DE3), purified (DDM extraction, Talon resin, thrombin, Superdex-200); not shown: His tag, N-terminal, cleaved

Experiments:
[1] = target: the molecule itself; test: crystal structure; wild-type KtrAB with ADP, 8 Å diffraction dataset; molecular replacement searches and an averaged map only (low resolution model); crystals from 100 mM Hepes pH 7.5, 1 M NaCl, 10% PEG4000, 20°C
[2] = target: B1; test: SEC; size-exclusion purified KtrB (wild type or mutant) mixed with an excess of KtrA (wild type, KtrAC0 or KtrAΔC), run in the presence of ATP or ADP, in detergent; SDS-PAGE of the fractions; conditions: both partners purified
[3] = target: the molecule itself; test: crystal structure; KtrAΔCB with bound ADP, data to 6 Å, molecular replacement, 4-fold and 8-fold averaging, DEN refinement; crystals from 100 mM Tris-HCl pH 8.5, 18%–22% PEG400, 100–200 mM CaCl2, 20°C

binding result [2] | Binder | binding result [1] | binding result [3] | stoichiometry N [3]
binds | KtrA (wild type), cytosolic RCK ring protein of the KtrAB K+ transporter from Bacillus subtilis (natural protein, UniProt O32080 1-222, looked up, KtrA, RCK domain protein of the KtrAB K+ transporter, Bacillus subtilis, GenBank KIX81590.1; eluted and kept with ADP or ATP; also called full-length KtrA; wild type KtrA; source: E. coli BL21(DE3), purified (anion exchange, ADP-agarose, Superdex-S200)) MGRIKNKQFAVIGLGRFGGSICKELHRMGHEVLAVDINEEKVNAYASYATHAVIANATEENELLSLGIRNFEYVIVAIGANIQASTLTTLLLKELDIPNIWVKAQNYYHHKVLEKIGADRIIHPEKDMGVKIAQSLSDENVLNYIDLSDEYSIVELLATRKLDSKSIIDLNVRAKYGCTILAIKHHGDICLSPAPEDIIREQDCLVIMGHKKDIKRFENEGM | binds | – | –
binds | KtrAΔC, C-terminal domain truncated KtrA (tandem of two N-terminal KtrA domains) (domain or fragment, Bacillus subtilis, KtrA N-terminal domain, Bacillus subtilis, GenBank KIX81590.1, residues 1-144 (first copy of the tandem); linker between the two N-terminal domains; KtrA N-terminal domain, Bacillus subtilis, GenBank KIX81590.1, residues 7-144 (second copy of the tandem); Lacks KtrA residues 145-222 (the whole C-terminal domain); Forms an octameric ring counted in N-terminal domains; each chain carries two of …) MGRIKNKQFAVIGLGRFGGSICKELHRMGHEVLAVDINEEKVNAYASYATHAVIANATEENELLSLGIRNFEYVIVAIGANIQASTLTTLLLKELDIPNIWVKAQNYYHHKVLEKIGADRIIHPEKDMGVKIAQSLSDENVLNYLEGSKQFAVIGLGRFGGSICKELHRMGHEVLAVDINEEKVNAYASYATHAVIANATEENELLSLGIRNFEYVIVAIGANIQASTLTTLLLKELDIPNIWVKAQNYYHHKVLEKIGADRIIHPEKDMGVKIAQSLSDENVLNY | – | binds | –
– | B1 | – | – | 2

Source: publication PMC4714889, “Dissecting the Molecular Mechanism of Nucleotide-Dependent Activation of the KtrAB K^+ Transporter” (PLoS Biology, 2016)
